“Also recorded” adds a separate entry of the source.
B1: FRP1: human secreted Frizzled Related Protein 1, Wnt antagonist; expressed from pBabe-derived retrovirus with carboxy-terminal HA tag (protein, UniProt Q8N474 32-314, looked up)
Secreted frizzled-related …: SEYDYVSFQSDIGPYQSGRFYTKPPQCVDIPADLRLCHNVGYKKMVLPNLLEHETMAEVKQQASSWVPLLNKNCHAGTQVFLCSLFAPVCLDRPIYPCRWLCEAVRDSCEPVMQFFGFYWPEMLKCDKFPEGDVCIAMTPPNATEASKPQGTTVCPPCDNELKSEAIIEHLCASEFALRMKIKEVKKENGDKKIVPKKKKPLKLGPIKKKDLKKLVLYLKNGADCPCHQLDNLSHHFLIMGRKVKSQYLLTAIHKWDKKNKEFKNFMKKMKNHECPTFQSVFK
modifications: C-terminal HA tag
notes: human secreted Frizzled Related Protein 1, Wnt antagonist; expressed from pBabe-derived retrovirus with carboxy-terminal HA tag
B2: DKK1: Dickkopf-1, secreted Wnt antagonist protein that binds Wnt co-receptor LRP6; used purified, in conditioned media or retrovirally expressed with HA tag (protein, UniProt O94907 32-266, looked up)
Dickkopf-related protein 1: TLNSVLNSNAIKNLPPPLGGAAGHPGSAVSAAPGILYPGGNKYQTIDNYQPYPCAEDEECGTDEYCASPTRGGDAGVQICLACRKRRKRCMRHAMCCPGNYCKNGICVSSDQNHFRGEIEETITESFGNDHSTLDGYSRRTTLSSKMYHTKGQEGSVCLRSSDCASGLCCARHFWSKICKPVLKEGQVCTKHRRKGSHGLEIFQRCYCGEGLSCRIQKDHHQASNSSRLHTCQRH
modifications: HA tag in some uses

Legend:
Format in all cases: cell-based, human
H1355 = test: tBh-induced apoptosis in H1355 NSCLC cells; conditions: H1355 NSCLC cells (data not shown)
Procedure: (§1) To assess the effects of Wnt inhibition by FRP1 or DKK1 on the response of MDAMB157 cells to apoptotic stimuli, we exposed AB589 or MDAMB157 cells expressing either vector control, FRP1 or DKK1 to increasing concentrations of tert-butyl hydroperoxide (tBh) (Sigma) a known inducer of oxidative stress that causes DNA damage through reactive oxygen species (ROS) (Macip et al., (2003) Mol. Cell. Biol. 23:8576-8585), and analyzed the apoptotic response. Sub-confluent cultures were treated with increasing amounts of tert-butyl hydroperoxide (tBH) for 2 hours. Twenty-four hours later, cells were washed in PBS, trypsinized and incubated with Annexin and PI using the Annexin-V-Fluos Staining kit (Roche). Fluorescent stained cells were subjected to FACS (Beckton Dickinson FACScan) using Cell Quest 3.2 software (Beckton Dickinson) for acquisition and analysis.
We have also tested the effects of tBh on lung tumor cells with autocrine Wnt signaling in the presence or absence of the Wnt antagonists FRP and DKK. […] These findings indicate that inhibition of a Wnt autocrine signaling mechanism in tumor cells by Wnt antagonists such as FRP or DKK would make them more sensitive to the killing effects of standard chemo or irradiation therapies. We noted that levels of expression of these antagonists decreased with passage of the transfected and marker selected tumor cells.

MDAMB157 cells [1] = test: tBh-induced apoptosis (Annexin/PI FACS) in MDAMB157 cells; conditions: each concentration of tBh, over-expression vs vector
Procedure: as §1

uncomplexed β-catenin = test: Uncomplexed β-catenin in Wnt autocrine tumor cells (summary statements); conditions: summary of the Examples
Procedure: β-catenin levels were assessed using the GST-E-cadherin binding assay, which has been previously described (Bafico et al., (1998) Oncogene 16:2819-2825). Briefly, bacterially expressed GST-E-cadherin was purified with glutathione-Sepharose beads and incubated with 1 mg of each cell lysate. The GST-E-cadherin/[…]-catenin complex bound to the beads was recovered by centrifugation and analyzed by SDS-PAGE followed by immunoblotting. The uncomplexed β-catenin was detected using a monoclonal antibody to β-catenin (Transduction Laboratories). Unphosphorylated β-catenin was detected with a monoclonal antibody specific for β-catenin dephosphorylated at residues 27-37 (Alexis, Läufelfingen, Switzerland). FRP1-HA and DKK1-HA were detected with an anti-HA monoclonal antibody (Hybridoma Center, Mount Sinai School of Medicine, New York).

cyclin D1 = test: Northern blot of cyclin D1 in MDAMB157 cells; conditions: stable expression (data not shown)
Procedure: (§2) Alterations in the expression of a number of genes identified as targets of canonical Wnt signaling have been reported, although it should be noted that there is variability among Wnt target genes in different cell systems (Giles et al., (2003). Biochim. Biophys. Acta 1653:1-24). To investigate the effects of FRP1 and DKK1 inhibition on gene expression in MDAMB157 breast tumor cells, Northern blot analysis was performed on representative Wnt transcriptional targets, including Myc (He et al., (1998) Science 281:1509-1512), the LEF-1 transcription factor (Filali et al., (2002) J. Biol. Chem. 277:33398-33410) and the dominant negative helix-loop-helix transcriptional regulator, Id2 (Rockman et al., (2001) J. Biol. Chem. 276:45113-45119).
Total RNAs from MDAMB157 cells exogenously expressing vector alone, FRP1, or DKK1 were extracted using Triazol (Invitrogen), separated by agarose gel electrophoresis (1% agarose gel) and transferred to a nylon membrane (Hybond, Pharmacia). Probes were labeled by the Random Prime Labelling System method (Amersham Biosciences), and hybridization was performed overnight utilizing the Hybrisol I solution (Serologicals Corporation) according to the manufacturer's instructions. Normalization was performed utilizing a commercial human GADPH control probe (BD Biosciences Clontech). Probes were labelled with α-^32P-dCTP. […]

MDAMB157 cells [2] = test: Saturation density (cell counts) of MDAMB157 cells; conditions: MDAMB157 over-expressing antagonist vs vector transduced parental cells
Procedure: MDAMB157 cells exogenously expressing either vector control, FRP1 or DKK I were transferred at 1.5×10^5 cells per well in 6-well plates. Cell counts were performed in duplicate at the indicated times, and values represent the mean of two independent experiments.

ID2 = test: Northern blot of ID2 in MDAMB157 cells; conditions: stable expression
Procedure: as §2
(§3) Total RNAs from MDAMB157 cells exogenously expressing vector alone, FRP1, or DKK1 were extracted using Triazol (Invitrogen), separated by agarose gel electrophoresis (1% agarose gel) and transferred to a nylon membrane (Hybond, Pharmacia). Probes were labeled by the Random Prime Labelling System method (Amersham Biosciences), and hybridization was performed overnight utilizing the Hybrisol I solution (Serologicals Corporation) according to the manufacturer's instructions. Normalization was performed utilizing a commercial human GADPH control probe (BD Biosciences Clontech). Probes were labelled with α-^32P-dCTP.

AB589 = test: Saturation density of AB589 cells; conditions: AB589 infected with retrovirus (data not shown)
LEF-1 = test: Northern blot of LEF-1 in MDAMB157 cells; conditions: stable expression
Procedure: as §2, §3

AB589 cells = test: tBh-induced apoptosis (Annexin/PI FACS) in AB589 cells
Procedure: as §1

keratin 18 = test: RNA blot of keratin 18 in MDAMB157 cells; conditions: stable expression
Procedure: as §3
Since canonical Wnt signaling appears to be involved in maintaining epithelial progenitor cells of several tissues (van de Wetering et al. (2002) Cell 111:241-250; Alonso and Fuchs (2003) Genes Dev. 17:1189-1200; Reya et al. (2003) Nature 423:409-414; Polesskaya et al. (2003) Cell 113, 841-852), including the mouse mammary gland (Li et al. (2003) Proc Natl Acad Sci U.S.A. 100:15853-15858; Liu et al. (2004) Proc. Nat'l Acad. Sci. U.S.A. 101:4158-4163), we also investigated whether downregulation of Wnt signaling in MDAMB157 tumor cells affected their differentiated state. […] All of these findings provide evidence for a Wnt autocrine transforming mechanism in human tumor cells.

MYC = test: Northern blot of MYC in MDAMB157 cells; conditions: stable expression
Procedure: as §2, §3

Molecule	sensitivity to induction of apoptosis by tBh (H1355)	level of apoptosis (MDAMB157 cells [1])	up regulated uncomplexed β-catenin levels (uncomplexed β-catenin)	levels of cyclin D1 (cyclin D1)	saturation density (MDAMB157 cells [2])	expression of ID2 (ID2)	saturation density (AB589)	expression of LEF-1 (LEF-1)	apoptotic responses compared to the vector infected cells (AB589 cells)	keratin 18 levels (keratin 18)	expression of MYC (MYC)
B1	more sensitive to induction of apoptosis	statistically significant increase	down regulation	did not observe significant changes	decreased saturation density	reduced	no detectable effect	reduced	no detectable differences	increase	reduced
B2	more sensitive to induction of apoptosis	statistically significant increase	down regulation; also recorded: striking reduction	did not observe significant changes	decreased saturation density	reduced	no detectable effect	reduced	no detectable differences	increase	reduced

Reference: patent US8809287B2, “Compositions and methods for altering Wnt autocrine signaling” (Icahn School of Medicine at Mount Sinai, priority 2004, dated 2014)
